{"source": "paper PMC3566092", "key": {"[1]": {"target": "Recombinant His-tagged WIP1ΔEx6 (UniProt O15297)"}, "[2]": {"target": "Recombinant His-tagged WIP1ΔEx6 (UniProt O15297)", "remark": "listed apart in the source"}}}
{"substance": "GST-Tax (from UniProt P03409 1-353) (natural protein)", "values": [{"measurement": "in vitro phosphatase assay: free phosphate released from the H2AX (pS139) phosphopeptide by His-WIP1 (20 ng) with GST-Tax (100 ng), against His-WIP1 alone or with GST", "setting": "[1]", "result": 2, "unit": "fold"}, {"measurement": "in vitro phosphatase assay: free phosphate released from the p38 (pT180) phosphopeptide by His-WIP1 with GST-Tax, against His-WIP1 alone", "setting": "[2]", "result": 2, "unit": "fold"}]}
